Changes are numbered by the printed parent chain.
B1: PR005125 (antibody, human IgG1, kappa)
heavy: not shown
light: DIVMTQSPLSLSVTLGQPASISCRSSQSLVFSNGNTYLNWFQQRPGQSPRRLIYKVSKRDSGVPDRFSGSGSGTDFTLKISRVEAEDVGVYYCMQGTHWITFGQGTRLEIKRTVAAPSVFIFPPSDEQLKSGTASVVCLLNNFYPREAKVQWKVDNALQSGNSQESVTEQDSKDSTYSLSSTLTLSKADYEKHKVYACEVTHQGLSSPVTKSFNRGEC
notes: fully human, human IgG1 constant region
B2: PR005128 (antibody, human IgG1, kappa)
heavy: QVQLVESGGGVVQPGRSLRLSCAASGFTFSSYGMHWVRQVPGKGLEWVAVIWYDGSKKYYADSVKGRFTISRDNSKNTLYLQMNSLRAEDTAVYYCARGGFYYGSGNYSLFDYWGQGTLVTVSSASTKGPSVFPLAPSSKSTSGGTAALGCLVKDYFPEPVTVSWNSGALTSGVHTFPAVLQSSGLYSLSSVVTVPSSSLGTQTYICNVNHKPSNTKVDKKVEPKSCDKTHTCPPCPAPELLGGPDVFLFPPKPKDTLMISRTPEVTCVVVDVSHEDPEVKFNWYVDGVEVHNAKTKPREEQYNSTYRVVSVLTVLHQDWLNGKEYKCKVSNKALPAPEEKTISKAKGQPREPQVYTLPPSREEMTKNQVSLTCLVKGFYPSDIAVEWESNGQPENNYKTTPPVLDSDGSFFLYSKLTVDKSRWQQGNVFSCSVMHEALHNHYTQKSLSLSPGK
light: B1 light
notes: fully human; same VH/VL as PR005125, other heavy chain entry
B3: PR005332 (antibody, human IgG1, kappa)
heavy: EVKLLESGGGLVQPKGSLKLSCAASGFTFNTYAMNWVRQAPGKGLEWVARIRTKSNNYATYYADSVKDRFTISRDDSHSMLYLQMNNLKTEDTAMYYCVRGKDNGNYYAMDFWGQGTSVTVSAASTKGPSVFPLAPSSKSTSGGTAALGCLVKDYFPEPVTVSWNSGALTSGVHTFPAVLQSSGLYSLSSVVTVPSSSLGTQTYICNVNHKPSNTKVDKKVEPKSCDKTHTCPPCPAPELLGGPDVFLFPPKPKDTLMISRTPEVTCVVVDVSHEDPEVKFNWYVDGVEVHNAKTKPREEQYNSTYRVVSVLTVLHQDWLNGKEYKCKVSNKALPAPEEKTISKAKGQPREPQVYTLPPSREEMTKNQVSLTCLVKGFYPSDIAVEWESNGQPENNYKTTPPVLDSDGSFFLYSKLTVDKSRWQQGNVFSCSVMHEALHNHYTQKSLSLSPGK
light: DIVMTQAAPSVPVTPGESVSISCRSSKSLLHSNGNTYLYWFLQRPGQSPQLLIYRMSNLASGVPDRFSSSGSGTDFTLRISRVEAEDVGVYYCMQHLEYPFTFGAGTKLEIKRTVAAPSVFIFPPSDEQLKSGTASVVCLLNNFYPREAKVQWKVDNALQSGNSQESVTEQDSKDSTYSLSSTLTLSKADYEKHKVYACEVTHQGLSSPVTKSFNRGEC
notes: same VH/VL as PR005329, other heavy chain entry
B4: PR005565AF (antibody, human IgG1, kappa)
heavy: not shown
light: DIVMTQSPLSLPVTLGQPASISCRSSKSLLHSNAKIYLYWFQQRPGQSPRLLIYRMSNLASGVPDRFSGSGSGTDFTLKISRVEAEDVGVYYCMQHLEYPLTFGQGTKLEIKRTVAAPSVFIFPPSDEQLKSGTASVVCLLNNFYPREAKVQWKVDNALQSGNSQESVTEQDSKDSTYSLSSTLTLSKADYEKHKVYACEVTHQGLSSPVTKSFNRGEC
modifications: afucosylated (AF) Fc glycan, produced with 2-fluoro peracetylated fucose
notes: also called PR005565F
B5: PR006154 (antibody, human IgG1, kappa, V domains shown)
VH: EVQLVESGGGLVKPGGSLRLSCAASGFTFSTYAMNWVRQAPGKGLEWVGRIRSKSNNYATYYADSVKDRFTISRDDSKSTLYLQMNSLKTEDTAVYYCVRGKEHGNYYAMDFWGQGTTVTVSS
VL: DIVMTQSPLSLPVTLGQPASISCRSSKSLLHSNAKIYLYWFQQRPGQSPRLLIYRMSNLASGVPDRFSGSGSGTDFTLKISRVEAEDVGVYYCMQHLEYPLTFGQGTKLEIKR
B6: PR005329 (antibody, human IgG1, kappa)
heavy: not shown
light: B3 light
notes: called CCR8 chimeric antibody; human IgG1 constant region
B7: PR005330 (antibody, human IgG1, kappa)
heavy: not shown
light: B3 light with P9T, P12L, H31Y, S69G, D75A, A105G, I111L
notes: as for B6
B8: PR005333 (antibody, human IgG1, kappa)
heavy: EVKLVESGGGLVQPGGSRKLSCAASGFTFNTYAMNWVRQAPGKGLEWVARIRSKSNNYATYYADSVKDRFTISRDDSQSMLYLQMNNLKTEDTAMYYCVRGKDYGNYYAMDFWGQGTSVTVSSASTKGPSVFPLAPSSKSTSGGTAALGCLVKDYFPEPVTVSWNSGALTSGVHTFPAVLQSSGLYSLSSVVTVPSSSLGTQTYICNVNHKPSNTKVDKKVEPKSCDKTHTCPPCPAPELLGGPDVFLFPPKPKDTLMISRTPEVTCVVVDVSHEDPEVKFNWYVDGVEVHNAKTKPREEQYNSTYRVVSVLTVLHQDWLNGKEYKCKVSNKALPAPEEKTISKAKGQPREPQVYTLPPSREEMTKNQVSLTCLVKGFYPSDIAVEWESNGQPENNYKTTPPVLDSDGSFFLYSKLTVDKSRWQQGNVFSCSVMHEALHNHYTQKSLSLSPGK
light: B3 light with P9T, P12L, H31Y, S69G, D75A, A105G, I111L
notes: same VH/VL as PR005330, other heavy chain entry
B9: PR005335 (antibody, human IgG1, kappa, V domains shown)
VH: QVQLVQSGGGLVQPGGSLRLSCTASGFTFSYYWLSWVRQAPGKGLEWVANIKQDGSTTYYVDSVKGRFTISRDNAKNSLYLQMNSLRAEDTAVYYCARNWGFDYWGQGTLVTVSS
VL: not shown
notes: as for B1
B10: PR004324 (antibody, human IgG1, kappa, V domains shown)
VH: EVQLVESGGGLVQPKGSLKLSCAASGFTFNTYAMNWVRQAPGKGLEWVARIRSKSNNYATYYADSVKDRFTISRDDSQSMLYLQMNNLKTEDTAMYYCVRGKENGNYYAMDFWGQGTSVTVSA
VL: DIVMTQAAPSVPVTPGESVSISCRSSKSLLHSNAKIYLYWFLQRPGQSPQLLIYRMSNLASGVPDRFSGSGSGTAFTLRISRVEAEDVGVYYCMQHLEYPLTFGAGTKLEIKR
notes: PTM variant of PR004128, IgG1 with DE mutation
B11: PR004343 (antibody, human IgG1, kappa, V domains shown)
VH: B10 VH
VL: B5 VL with A34G
notes: light-chain semi-humanized variant of PR004128, IgG1 with DE mutation
B12: PR004345 (antibody, human IgG1, kappa, V domains shown)
VH: B10 VH
VL: B5 VL with S26N, A34G, K35N, I36T
notes: as for B11
B13: PR004335 (antibody, human IgG1, kappa, V domains shown)
VH: B5 VH with K13Q, S30N, G49S, K89R, T90A, H104N, F112Y
VL: B10 VL with A34G
notes: heavy-chain semi-humanized variant of PR004128, IgG1 with DE mutation
B14: PR004344 (antibody, human IgG1, kappa, V domains shown)
VH: B10 VH
VL: B5 VL with A34G, K35N, I36T
notes: as for B11
B15: PR004334 (antibody, human IgG1, kappa, V domains shown)
VH: B5 VH with K13Q, S30N, Y32N, G49S, K89R, T90A, H104N
VL: B10 VL with A34G
notes: as for B13
B16: PR004333 (antibody, human IgG1, kappa, V domains shown)
VH: B5 VH with K13Q, S30N, G49S, K89R, T90A, H104N
VL: B10 VL with A34G
notes: as for B13
B17: PR004331 (antibody, human IgG1, kappa, V domains shown)
VH: B5 VH with S30N, Y32N, H104N
VL: B10 VL with A34G
notes: as for B13
B18: PR004330 (antibody, human IgG1, kappa, V domains shown)
VH: B5 VH with S30N, H104N
VL: B10 VL with A34G
notes: as for B13
B19: PR004332 (antibody, human IgG1, kappa, V domains shown)
VH: B5 VH with S30N, H104N, F112Y
VL: B10 VL with A34G
notes: as for B13
B20: PR004340 (antibody, human IgG1, kappa, V domains shown)
VH: B10 VH
VL: B5 VL with L15P, Q17E, A34G, K35N, I36T, Q42L, R44K, R50Q
notes: as for B11
B21: PR004329 (antibody, human IgG1, kappa, V domains shown)
VH: B10 VH with N104Q
VL: B10 VL with A34G
notes: as for B10
B22: PR004339 (antibody, human IgG1, kappa, V domains shown)
VH: B10 VH
VL: B5 VL with L15P, Q17E, A34G, Q42L, R44K, R50Q
notes: as for B11
B23: PR004338 (antibody, human IgG1, kappa, V domains shown)
VH: B5 VH with K13Q, R19K, S30N, P41S, H104N, F112Y
VL: B10 VL with A34G
notes: as for B13
B24: PR004337 (antibody, human IgG1, kappa, V domains shown)
VH: B5 VH with K13Q, R19K, S30N, Y32N, P41S, H104N
VL: B10 VL with A34G
notes: as for B13
B25: PR004327 (antibody, human IgG1, kappa, V domains shown)
VH: B10 VH with N30Q
VL: B10 VL with A34G
notes: as for B10
B26: PR004325 (antibody, human IgG1, kappa, V domains shown)
VH: B10 VH
VL: B10 VL with N33Q, A34G
notes: as for B10
B27: PR004326 (antibody, human IgG1, kappa, V domains shown)
VH: B10 VH with G105A
VL: B10 VL with A34G
notes: as for B10
B28: PR004336 (antibody, human IgG1, kappa, V domains shown)
VH: B5 VH with K13Q, R19K, S30N, P41S, H104N
VL: B10 VL with A34G
notes: as for B13
B29: PR004328 (antibody, human IgG1, kappa, V domains shown)
VH: B10 VH with N30S
VL: B10 VL with A34G
notes: as for B10

What follows are binders tested against T1, human CCR8 (human, UniProt P51685 1-355) (assay: FACS, CHO-K1-hCCR8 cells).
T1 construct: whole, on cells; construct used for the overexpressing cell lines is not described; also called hCCR8
Experimental: (§1) Cells overexpressing human CCR8 were digested with pancreatin, counted and resuspended to a cell density of 1E6 cells/mL. The cell suspension was added to a 96-well V-bottom plate at 100 μL/well and centrifuged at 300 g for 5 min, and the supernatant was discarded. The anti-CCR8 antibodies provided herein was used as a primary antibody and diluted in a 5-fold gradient with an FACS buffer (DPBS containing 2% FBS) from 200 nM. The diluted primary antibody was added at 100 μL/well to resuspend the cells, and the mixture was incubated at 4° C. for 1 h. The plate was washed twice with DPBS and centrifuged at 300×g for 5 min, and the supernatant was discarded. The secondary antibody diluted in a 1:1000 ratio with an FACS buffer was added at 100 μL/well to suspend the cells, and the mixture was incubated at 4° C. for 40 min. The plate was washed twice with DPBS and centrifuged at 300×g for 5 min, and the supernatant was discarded. DPBS was added at 200 μL/well to suspend the cells, and the mixture was loaded on an FACS machine for analysis.

T1 sequence (P51685 whole entry): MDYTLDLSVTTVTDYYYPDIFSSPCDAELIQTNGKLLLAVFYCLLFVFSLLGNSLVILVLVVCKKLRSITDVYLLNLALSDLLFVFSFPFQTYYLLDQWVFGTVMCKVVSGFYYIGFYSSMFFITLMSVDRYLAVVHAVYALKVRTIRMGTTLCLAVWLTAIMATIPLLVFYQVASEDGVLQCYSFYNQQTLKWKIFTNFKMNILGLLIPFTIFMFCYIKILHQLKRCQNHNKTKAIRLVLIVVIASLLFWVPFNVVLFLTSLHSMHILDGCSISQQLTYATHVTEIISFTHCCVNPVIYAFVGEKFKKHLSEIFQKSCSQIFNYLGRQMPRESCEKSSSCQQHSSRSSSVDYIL

Binder | EC50 [nM]
B1 | 0.44
B2 | 0.37
B3 | 0.63
B4 | 0.38
B5 | 0.38
B6 | 0.49
B7 | 0.47
B8 | 0.52
B9 | 0.47

Molecular target: T1, human CCR8
Assay: FACS, CHO-K1-hCCR8 cells
Remark: another data set of the same source
Experimental: as §1

Binder | EC50 [nM]
B10 | 0.67
B11 | 1.08
B12 | 1.12
B13 | 0.97
B14 | 1
B15 | 1.33
B16 | 0.91
B17 | 1.03
B18 | 0.85
B19 | 0.73
B20 | 1.06
B21 | 0.17
B22 | 0.95
B23 | 0.72
B24 | 0.76
B25 | 1.08
B26 | 1.31
B27 | 0.37
B28 | 0.79
B29 | 1

Each binder was assayed against T2, cynomolgus monkey CCR8 (cynomolgus monkey, UniProt G7NYJ2 1-355) (assay: FACS, CHO-K1-CynoCCR8 cells).
T2 construct: whole, on cells; also called CynoCCR8
Experimental: as §1, with “cynomolgus monkey CCR8, CHO-K1-CynoCCR8,” for “human CCR8”

T2 sequence (G7NYJ2 entry or part of it): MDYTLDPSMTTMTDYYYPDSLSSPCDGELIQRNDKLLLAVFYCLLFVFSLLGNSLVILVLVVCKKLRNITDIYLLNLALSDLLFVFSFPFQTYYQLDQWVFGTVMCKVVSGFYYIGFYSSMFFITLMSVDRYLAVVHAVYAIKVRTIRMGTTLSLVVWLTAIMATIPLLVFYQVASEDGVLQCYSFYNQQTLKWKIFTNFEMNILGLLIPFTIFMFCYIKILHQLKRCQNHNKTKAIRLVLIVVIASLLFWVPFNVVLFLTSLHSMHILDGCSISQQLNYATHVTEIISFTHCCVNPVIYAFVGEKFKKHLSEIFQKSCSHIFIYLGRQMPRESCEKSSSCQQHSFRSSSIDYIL

Binder | EC50 [nM]
B4 | 0.62
B5 | 0.31

Molecular target: T2, cynomolgus monkey CCR8
Assay: FACS, CHO-K1-CynoCCR8 cells
Remark: another data set of the same source
Experimental: as §1, with “cynomolgus monkey CCR8, CHO-K1-CynoCCR8,” for “human CCR8”

Binder | EC50 [nM]
B10 | 2.3
B11 | 6.38
B12 | 5.96
B13 | 3.52
B14 | 3.51
B15 | 7.5
B16 | 4.97
B17 | 6.99
B18 | 3.96
B19 | 2.75
B20 | 5.35
B21 | 0.41
B22 | 9.58
B23 | 4.21
B24 | 5.47
B25 | 13.4
B26 | 3.89
B27 | 0.75
B28 | 3.33
B29 | 6.05

— patent US20240132603A1 (HARBOUR BIOMED US, published 2024)
